Data: patent publication US20240262917

Experiments:
[1] = target: Full-length human anaplastic lymphoma kinase (ALK) receptor, wild type
[2] = target: ALK LF655del cleavage site mutant
Chain of ALK LF655del cleavage site mutant (chain, as listed by the source mutant): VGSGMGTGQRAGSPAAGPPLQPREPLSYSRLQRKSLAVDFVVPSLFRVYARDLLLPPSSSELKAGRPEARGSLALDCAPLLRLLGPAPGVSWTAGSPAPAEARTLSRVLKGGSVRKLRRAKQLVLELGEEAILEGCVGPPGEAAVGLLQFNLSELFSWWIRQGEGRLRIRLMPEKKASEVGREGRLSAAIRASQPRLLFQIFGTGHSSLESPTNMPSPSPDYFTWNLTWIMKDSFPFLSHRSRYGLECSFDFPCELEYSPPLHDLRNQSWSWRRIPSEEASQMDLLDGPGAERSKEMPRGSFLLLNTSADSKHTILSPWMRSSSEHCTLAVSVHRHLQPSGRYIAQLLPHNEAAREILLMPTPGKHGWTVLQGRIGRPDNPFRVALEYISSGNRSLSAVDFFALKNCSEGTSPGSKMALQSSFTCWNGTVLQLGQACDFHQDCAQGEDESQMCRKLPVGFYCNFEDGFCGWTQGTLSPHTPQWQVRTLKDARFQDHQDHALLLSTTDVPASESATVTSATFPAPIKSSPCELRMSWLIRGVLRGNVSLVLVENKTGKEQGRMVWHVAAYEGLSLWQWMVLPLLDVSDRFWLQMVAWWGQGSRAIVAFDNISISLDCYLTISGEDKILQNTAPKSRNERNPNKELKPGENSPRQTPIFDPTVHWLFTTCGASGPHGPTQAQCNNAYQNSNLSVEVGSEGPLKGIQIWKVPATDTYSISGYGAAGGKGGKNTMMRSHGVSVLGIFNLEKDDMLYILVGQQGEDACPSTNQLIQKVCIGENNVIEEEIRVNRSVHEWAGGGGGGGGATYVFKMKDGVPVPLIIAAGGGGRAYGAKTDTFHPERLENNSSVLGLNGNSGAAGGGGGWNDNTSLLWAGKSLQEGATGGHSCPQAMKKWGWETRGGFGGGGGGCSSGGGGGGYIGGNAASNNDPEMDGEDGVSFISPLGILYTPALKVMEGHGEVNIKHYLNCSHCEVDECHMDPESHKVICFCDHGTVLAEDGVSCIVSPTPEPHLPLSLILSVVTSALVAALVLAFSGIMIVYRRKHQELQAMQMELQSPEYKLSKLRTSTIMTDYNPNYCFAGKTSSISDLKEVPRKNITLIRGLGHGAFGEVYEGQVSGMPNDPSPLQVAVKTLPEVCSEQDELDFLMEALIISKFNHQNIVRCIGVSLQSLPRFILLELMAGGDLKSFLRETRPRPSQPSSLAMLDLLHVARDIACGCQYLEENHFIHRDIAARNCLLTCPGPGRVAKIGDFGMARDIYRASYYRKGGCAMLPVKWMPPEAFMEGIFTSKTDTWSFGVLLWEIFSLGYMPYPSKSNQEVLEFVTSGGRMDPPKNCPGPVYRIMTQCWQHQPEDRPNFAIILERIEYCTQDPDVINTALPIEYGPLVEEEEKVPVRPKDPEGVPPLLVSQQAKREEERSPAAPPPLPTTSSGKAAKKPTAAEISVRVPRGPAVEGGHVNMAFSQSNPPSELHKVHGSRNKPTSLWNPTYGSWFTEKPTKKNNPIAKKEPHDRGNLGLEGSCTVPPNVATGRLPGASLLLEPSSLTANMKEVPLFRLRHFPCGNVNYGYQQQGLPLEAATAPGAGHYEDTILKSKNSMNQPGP

Chain of Full-length human anaplastic lymphoma kinase (ALK) receptor, wild type (chain, as listed by the source): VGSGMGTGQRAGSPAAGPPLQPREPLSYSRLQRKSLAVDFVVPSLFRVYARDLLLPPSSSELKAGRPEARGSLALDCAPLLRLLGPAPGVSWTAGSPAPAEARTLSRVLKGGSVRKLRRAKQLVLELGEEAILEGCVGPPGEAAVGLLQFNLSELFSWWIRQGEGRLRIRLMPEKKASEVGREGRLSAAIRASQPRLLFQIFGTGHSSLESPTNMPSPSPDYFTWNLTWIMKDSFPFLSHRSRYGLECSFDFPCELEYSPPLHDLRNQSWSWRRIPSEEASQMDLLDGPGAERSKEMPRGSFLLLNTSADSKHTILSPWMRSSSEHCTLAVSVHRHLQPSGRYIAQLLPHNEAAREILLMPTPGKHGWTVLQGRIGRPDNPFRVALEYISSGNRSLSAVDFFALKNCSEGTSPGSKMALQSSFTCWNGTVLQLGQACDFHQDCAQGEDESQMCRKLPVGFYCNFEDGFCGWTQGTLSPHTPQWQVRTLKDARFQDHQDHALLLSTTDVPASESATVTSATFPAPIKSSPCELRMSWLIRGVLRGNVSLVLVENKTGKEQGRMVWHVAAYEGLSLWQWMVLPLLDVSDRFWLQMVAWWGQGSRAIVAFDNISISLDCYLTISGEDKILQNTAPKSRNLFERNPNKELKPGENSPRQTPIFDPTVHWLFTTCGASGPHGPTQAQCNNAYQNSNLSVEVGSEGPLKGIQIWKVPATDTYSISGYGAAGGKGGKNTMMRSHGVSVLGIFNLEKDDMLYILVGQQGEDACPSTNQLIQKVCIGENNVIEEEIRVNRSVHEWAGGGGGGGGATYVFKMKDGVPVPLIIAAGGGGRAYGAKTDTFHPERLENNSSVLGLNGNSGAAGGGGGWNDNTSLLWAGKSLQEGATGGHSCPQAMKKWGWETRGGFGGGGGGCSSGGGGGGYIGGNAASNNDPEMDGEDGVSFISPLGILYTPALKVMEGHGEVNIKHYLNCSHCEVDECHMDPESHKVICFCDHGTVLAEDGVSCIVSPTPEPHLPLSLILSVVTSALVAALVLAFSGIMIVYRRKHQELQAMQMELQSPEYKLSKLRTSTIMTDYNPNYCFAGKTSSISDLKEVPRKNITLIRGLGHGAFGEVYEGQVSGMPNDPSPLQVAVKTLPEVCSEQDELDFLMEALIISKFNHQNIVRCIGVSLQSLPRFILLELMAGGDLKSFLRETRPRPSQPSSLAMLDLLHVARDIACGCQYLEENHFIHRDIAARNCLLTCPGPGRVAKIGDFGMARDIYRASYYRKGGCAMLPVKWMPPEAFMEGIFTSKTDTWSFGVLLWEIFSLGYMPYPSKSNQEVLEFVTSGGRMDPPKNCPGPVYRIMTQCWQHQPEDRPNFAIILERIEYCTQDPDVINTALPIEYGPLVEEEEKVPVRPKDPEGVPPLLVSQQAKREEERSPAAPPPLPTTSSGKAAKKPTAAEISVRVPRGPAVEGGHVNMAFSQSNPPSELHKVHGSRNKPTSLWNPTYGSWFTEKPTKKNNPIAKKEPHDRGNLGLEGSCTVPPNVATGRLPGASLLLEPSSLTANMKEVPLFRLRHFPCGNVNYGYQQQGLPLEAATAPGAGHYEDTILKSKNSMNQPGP

B1: Full-length recombinant human MMP-9 (protein)
chain: APRQRQSTLVLFPGDLRTNLTDRQLAEEYLYRYGYTRVAEMRGESKSLGPALLLLQKQLSLPETGELDSATLKAMRTPRCGVPDLGRFQTFEGDLKWHHHNITYWIQNYSEDLPRAVIDDAFARAFALWSAVTPLTFTRVYSRDADIVIQFGVAEHGDGYPFDGKDGLLAHAFPPGPGIQGDAHFDDDELWSLGKGVVVPTRFGNADGAACHFPFIFEGRSYSACTTDGRSDGLPWCSTTANYDTDDRFGFCPSERLYTQDGNADGKPCQFPFIFQGQSYSACTTDGRSDGYRWCATTANYDRDKLFGFCPTRADSTVMGGNSAGELCVFPFTFLGKEYSTCTSEGRGDGRLWCATTSNFDSDKKWGFCPDQGYSLFLVAAHEFGHALGLDHSSVPEALMYPMYRFTEGPPLHKDDVNGIRHLYGPRPEPEPRPPTTTTPQPTAPPTVCPTGPPTVHPSERPTAGPTGPPSAGPTGPPTAGPSTATTVPLSPVDDACNVNIFDAIAEIGNQLYLFKDGKYWRFSEGRGSRPQGPFLIADKWPALPRKLDSVFEERLSKKLFFFSGRQVWVYTGASVLGPRRLDKLGLGADVAQVTGALRSGRGKMLLFSGRRLWRFDVKAQMVDPRSASEVDRMFPGVPLDTHDVFQYREKAYFCQDRFYWRVSSRSELNQVDQVGYVTYDILQCPED
For B1, the “in vitro cleavage assay (western blot of ALK)” value [1] was “Treatment of purified WT ALK, but not the ALK LF655del protein, with recombinant human MMP-9 resulted in ALK cleavage” and the “in vitro cleavage assay (western blot of ALK)” value [2] was “but not the ALK LF655del protein”.
